The values that follow are results of earlier work, collected in PMC4716630.

This series deals with hMSH2 (Homo sapiens) (UniProt P43246).
Chain of hMSH2 (Homo sapiens) (P43246 2-934): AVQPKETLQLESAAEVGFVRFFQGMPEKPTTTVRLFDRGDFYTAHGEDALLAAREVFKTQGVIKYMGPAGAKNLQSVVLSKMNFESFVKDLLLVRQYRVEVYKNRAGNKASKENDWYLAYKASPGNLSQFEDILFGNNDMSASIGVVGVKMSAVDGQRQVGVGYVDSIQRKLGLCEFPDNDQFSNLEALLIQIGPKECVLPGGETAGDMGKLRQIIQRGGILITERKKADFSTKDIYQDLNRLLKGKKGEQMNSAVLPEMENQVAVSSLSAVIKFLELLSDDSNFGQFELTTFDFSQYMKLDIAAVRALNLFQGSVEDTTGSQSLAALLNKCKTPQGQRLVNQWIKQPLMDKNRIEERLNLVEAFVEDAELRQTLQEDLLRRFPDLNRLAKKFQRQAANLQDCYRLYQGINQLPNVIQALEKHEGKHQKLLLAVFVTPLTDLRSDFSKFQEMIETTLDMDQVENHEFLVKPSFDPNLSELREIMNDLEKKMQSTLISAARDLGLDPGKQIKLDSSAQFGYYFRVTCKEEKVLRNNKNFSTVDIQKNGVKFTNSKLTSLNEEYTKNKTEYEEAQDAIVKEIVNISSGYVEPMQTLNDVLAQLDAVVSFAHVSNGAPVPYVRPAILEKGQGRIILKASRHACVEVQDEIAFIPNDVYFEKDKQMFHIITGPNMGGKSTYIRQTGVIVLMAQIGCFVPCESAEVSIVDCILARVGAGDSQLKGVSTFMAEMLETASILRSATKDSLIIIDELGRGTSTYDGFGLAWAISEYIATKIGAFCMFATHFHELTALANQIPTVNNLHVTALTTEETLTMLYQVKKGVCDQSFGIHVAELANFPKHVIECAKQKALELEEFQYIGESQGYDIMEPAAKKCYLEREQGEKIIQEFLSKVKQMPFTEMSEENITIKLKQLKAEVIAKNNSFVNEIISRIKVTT

Chain of NKG2D (P26718 whole entry): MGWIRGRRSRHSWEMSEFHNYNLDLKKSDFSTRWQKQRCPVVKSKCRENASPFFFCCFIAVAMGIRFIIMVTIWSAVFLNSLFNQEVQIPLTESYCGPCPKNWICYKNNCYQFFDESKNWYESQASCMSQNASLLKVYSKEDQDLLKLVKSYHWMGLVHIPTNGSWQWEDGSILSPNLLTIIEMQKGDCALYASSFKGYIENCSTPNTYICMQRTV

Broadly, the Kd is a measure of binding affinity in units of concentration. Regarding NKG2D (from UniProt P26718), the dissociation constant Kd is 132 nM.
